Test results from paper PMC9947773, “Modeling C3 glomerulopathies: C3 convertase regulation on an extracellular matrix surface” (Frontiers in Immunology, 2022).

Biological target: T1, C3b (human, UniProt P01024 23-667; P01024 749-1663)
T1 construct: complement C3, human; beta chain of C3b; alpha' chain of C3b (alpha chain without C3a); Coated on MaxGel (ECM) in microtiter wells at 130 ug/ml; also called purified C3b; source: bought: Complement Technology Inc., purified
Assay: C3 convertase formation assay (C3CFA), elution and western blot for Bb; C3b coated on MaxGel; FB + FD with Factor H or a Factor H variant as reactant (22.5 ug/ml), 10 min at 37°C; washed x3; eluted
Details: both partners purified

T1 sequence (P01024 23-667, chain 1 of 2): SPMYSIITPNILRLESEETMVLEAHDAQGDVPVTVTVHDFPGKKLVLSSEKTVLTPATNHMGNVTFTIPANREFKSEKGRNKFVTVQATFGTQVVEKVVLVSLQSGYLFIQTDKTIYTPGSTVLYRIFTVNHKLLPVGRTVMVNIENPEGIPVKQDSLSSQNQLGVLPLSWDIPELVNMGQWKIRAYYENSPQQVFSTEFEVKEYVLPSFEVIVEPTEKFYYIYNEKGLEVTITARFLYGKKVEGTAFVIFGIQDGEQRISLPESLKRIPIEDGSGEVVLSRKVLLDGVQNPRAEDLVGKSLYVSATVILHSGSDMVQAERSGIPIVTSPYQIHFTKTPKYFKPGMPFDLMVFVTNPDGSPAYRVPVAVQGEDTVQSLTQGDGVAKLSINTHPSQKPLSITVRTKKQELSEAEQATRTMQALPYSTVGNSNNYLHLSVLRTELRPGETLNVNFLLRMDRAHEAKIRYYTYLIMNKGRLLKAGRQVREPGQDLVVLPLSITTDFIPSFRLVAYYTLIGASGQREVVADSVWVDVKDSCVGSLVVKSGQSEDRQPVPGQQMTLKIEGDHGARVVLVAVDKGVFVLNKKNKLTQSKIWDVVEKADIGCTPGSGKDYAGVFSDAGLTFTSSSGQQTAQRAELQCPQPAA
T1 sequence (P01024 749-1663, chain 2 of 2): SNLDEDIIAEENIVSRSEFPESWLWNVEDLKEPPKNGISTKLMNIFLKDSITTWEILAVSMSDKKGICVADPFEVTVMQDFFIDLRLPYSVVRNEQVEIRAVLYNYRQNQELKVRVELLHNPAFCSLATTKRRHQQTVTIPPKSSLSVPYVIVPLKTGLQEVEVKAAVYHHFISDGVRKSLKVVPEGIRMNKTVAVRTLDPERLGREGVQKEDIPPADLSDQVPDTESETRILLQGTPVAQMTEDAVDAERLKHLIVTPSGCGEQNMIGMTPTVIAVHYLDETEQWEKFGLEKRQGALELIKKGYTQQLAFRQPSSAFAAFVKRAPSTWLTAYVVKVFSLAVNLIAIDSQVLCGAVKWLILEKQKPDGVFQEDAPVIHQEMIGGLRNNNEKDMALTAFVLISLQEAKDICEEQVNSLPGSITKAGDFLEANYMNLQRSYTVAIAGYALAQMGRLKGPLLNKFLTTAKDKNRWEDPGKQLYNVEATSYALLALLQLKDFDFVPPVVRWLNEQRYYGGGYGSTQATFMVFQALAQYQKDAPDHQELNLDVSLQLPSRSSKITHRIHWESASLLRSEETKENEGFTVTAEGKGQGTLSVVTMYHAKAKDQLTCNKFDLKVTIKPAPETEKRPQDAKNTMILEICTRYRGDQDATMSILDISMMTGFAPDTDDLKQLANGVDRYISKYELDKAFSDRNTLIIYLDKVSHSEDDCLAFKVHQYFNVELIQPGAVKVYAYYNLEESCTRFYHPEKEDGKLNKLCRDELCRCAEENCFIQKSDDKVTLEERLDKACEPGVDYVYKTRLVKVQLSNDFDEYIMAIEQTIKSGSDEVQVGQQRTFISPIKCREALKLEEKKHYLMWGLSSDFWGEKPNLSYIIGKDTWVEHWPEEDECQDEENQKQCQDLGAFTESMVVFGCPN

B1: Factor H (natural protein, human, UniProt P08603 19-1231, looked up)
chain: EDCNELPPRRNTEILTGSWSDQTYPEGTQAIYKCRPGYRSLGNVIMVCRKGEWVALNPLRKCQKRPCGHPGDTPFGTFTLTGGNVFEYGVKAVYTCNEGYQLLGEINYRECDTDGWTNDIPICEVVKCLPVTAPENGKIVSSAMEPDREYHFGQAVRFVCNSGYKIEGDEEMHCSDDGFWSKEKPKCVEISCKSPDVINGSPISQKIIYKENERFQYKCNMGYEYSERGDAVCTESGWRPLPSCEEKSCDNPYIPNGDYSPLRIKHRTGDEITYQCRNGFYPATRGNTAKCTSTGWIPAPRCTLKPCDYPDIKHGGLYHENMRRPYFPVAVGKYYSYYCDEHFETPSGSYWDHIHCTQDGWSPAVPCLRKCYFPYLENGYNQNYGRKFVQGKSIDVACHPGYALPKAQTTVTCMENGWSPTPRCIRVKTCSKSSIDIENGFISESQYTYALKEKAKYQCKLGYVTADGETSGSITCGKDGWSAQPTCIKSCDIPVFMNARTKNDFTWFKLNDTLDYECHDGYESNTGSTTGSIVCGYNGWSDLPICYERECELPKIDVHLVPDRKKDQYKVGEVLKFSCKPGFTIVGPNSVQCYHFGLSPDLPICKEQVQSCGPPPELLNGNVKEKTKEEYGHSEVVEYYCNPRFLMKGPNKIQCVDGEWTTLPVCIVEESTCGDIPELEHGWAQLSSPPYYYGDSVEFNCSESFTMIGHRSITCIHGVWTQLPQCVAIDKLKKCKSSNLIILEEHLKNKKEFDHNSNIRYRCRGKEGWIHTVCINGRWDPEVNCSMAQIQLCPPPPQIPNSHNMTTTLNYRDGEKVSVLCQENYLIQEGEEITCKDGRWQSIPLCVEKIPCSQPPQIEHGTINSSRSSQESYAHGTKLSYTCEGGFRISEENETTCYMGKWSSPPQCEGLPCKSPPEISHGVVAHMSDSYQYGEEVTYKCFEGFGIDGPAIAKCLGEKWSHPPSCIKTDCLSLPSFENAIPMGEKKDVYKAGEQVTYTCATYYKMDGASNVTCINSRWTGRPTCRDTSCVNPPTVQNAYIVSRQMSKYPSGERVRYQCRSPYEMFGDEEVMCLNGNWTEPPQCKDSTGKCGPPPPIDNGDITSFPLSVYAPASSVEYQCQNLYQLEGNKRITCRNGQWSEPPKCLHPCVISREIMENYNIALRWTAKQKLYSRTGESVEFVCKRGYRLSSRSHTLRTTCWDGKLEYPTCAKR
notes: complement factor H, human; Used at 22.5 ug/ml; also called FH; WT FH; source: bought: Complement Technology Inc
binding result: binds
